According to patent publication US20060003399A1, “High throughput actin polymerization assay” (Cytokinetics, Inc., priority 2004, published 2006):

Assays:
Assay in all cases: cell-based or functional assay
[1] = target: Full length human WASP, TAP-tagged at the C-terminus (Myc-WASP-TAP) (human)
[2] = target: Full length human N-WASP, TAP-tagged at the C-terminus (Myc-N-WASP-TAP) (human)
Arp2/3 complex (human) = Arp2/3 complex (human) (UniProt P61158)
[3] = target: Actin (G-actin with pyrene-actin) (chicken)

GST-tev-Cdc42 (enzyme)
EC50 [1]: 16 nM | EC50 [2]: 287 nM

Full length human WASP, TAP-tagged at the C-terminus (Myc-WASP-TAP)
activity relative to 105 WASP (fold against 105 WASP) (Arp2/3 complex (human)): 20 | concentration giving maximal concentration of barbed ends (500 nM Cdc42, 2.5 nM Arp2/3, 3.5 uM actin) (Arp2/3 complex (human)): 3 nM | potency relative to the VCA/WA domain (fold against VCA/WA domain) (Arp2/3 complex (human)): > 70

GST tagged C. albicans FH1-FH2 domain (from UniProt Q5AL52 972-1598)
lag phase of actin polymerization at 100 nM formin [3]: < 100 s | time to saturation phase of actin polymerization at 100 nM formin [3]: 400 s

GST-Nck2
Barbed ends [1]: 2.6 nM | Barbed ends % of max. [1]: 50% | EC50 [1]: 12 nM | Barbed ends [2]: 3.5 nM | Barbed ends % of max. [2]: 78% | EC50 [2]: 7 nM

His6 tagged C. albicans FH1-FH2 domain (from UniProt Q5AL52 972-1598)
formin concentration to observe saturation of actin polymerization [3]: 300 to 500 nM
